Here are results for 16 sequences from the nanobody polyreactivity screen of Harvey et al. (2022).

This data set in a line: yeast display, Sf9 membrane polyspecificity reagent, FACS + sequencing; frameworks hold sequencing errors. The method, boiled down: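 After 36–48 hours of galactose induction, yeast (Saccharomyces cerevisiae BJ5465) displaying a synthetic nanobody library were stained at 4 °C for 1 hour with 10% biotinylated, detergent-solubilized Sf9 membrane reagent. Streptavidin microbeads enriched the stained cells before FACS sorting into low and high (top ~1%) gates on anti-HA and streptavidin fluorescence. Each clone's polyreactivity label reflects its gate of origin.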
As to “QVQLVESGGGLVQAGGTRRLSCAASGSIFYYYAMGWYRQAPGKERELVAAINRGVGSTFYADSVKGRFTISRDNAKNTVYLQMNSLKPEDTAVYYCAVELNQVTPGLGYITLDYWGQGTQVTVSS”, the “polyreactivity (PSR sort gate)” value is on record as “low polyreactivity”.
Consider “QVQLVESGGGLVQAGGSLRLSCAASGSIFEYYTMGWYRQAPGKERELVATISRSADRTYYADSVKGRFTISRDNAKNTVYLQMNSLKPEDTAVDYCAKRYPRTTQWIYDYWGQGTQVTVSS”, for which the “polyreactivity (PSR sort gate)” value is “high polyreactivity”.
With “QVQLVESGGGLVQSGGSLRLSCAASGLIFPYYAMGWYRQAPGKERELVAAITGNGGRTYYADSVKGRFTISRDNAKYNVYLQMNSLKPEDTAVYYCAAAGKASSDYYVLGGYWGQGTQVTVSS”, the “polyreactivity (PSR sort gate)” value was “high polyreactivity”.
In the case of “QDQLVESGGGLVQAGGSLRLSCAASGIIIVAYAMGWYRQAPGKERELVAAITVSGARTYYADSVKGRFTISRDNAKITVYFQMNSLKPEDTAVYYCAARYAGGGVLGHGYWGQGTQVTVSS”, the “polyreactivity (PSR sort gate)” value is given as “high polyreactivity”.
On to “QVQLVESGGGLVQAGGSLRLSCAASGRTFIGYAMGWYRQAPGKERELVAAITSSGGSTYYSDSVKGRFTISRDNAKNTVYLQMNSLKPEDTAVYYCAAGRHSEDNYWGQGTQVTVSS”, for which the “polyreactivity (PSR sort gate)” value is listed as “high polyreactivity”.
For the sequence “QVQLVESGGGLVQARGSLRLSCAASGLTFITNTMGWYRQAPGKERELVAVISYSGTSTYYADSVKGRFTISRDYAKNTVYLQMNSLKPEDTAVYYWDASYLGSYRYSYYYWGQGTQVTVSS”, the “polyreactivity (PSR sort gate)” value is “high polyreactivity”.
In the case of “QVQLQESGGGLVQAGGSLRLSGAASGSISSRDAMGWYRQAPGKEREFVATIASGTTTYYADSVKGSFTISRDNAENTVYLQTNSLKPEDTAVYYCAAPTIQIYPFYYWGQGTQVTVSS”, the “polyreactivity (PSR sort gate)” value is “high polyreactivity”.
Turning to “QVQLVESGGGLVQAGGSLRLSCAASGFTVPGYAMGWYRQAPGNERELVAAINSSGGRTYYADSVKGRFTISRDTAKITVYFQMTSLKPEDTAVYYCAATRWYIRARYNYWGQGTQVTVSS”, the “polyreactivity (PSR sort gate)” value is recorded as “high polyreactivity”.
“QVQLVESGGGLVQAGGSLRLSCAASGSTFLINAMGWYRQAPGKEREFVAAITSSGGTTYYADSVKGRFTISRDNAKNTVYLQMNSLKPEDTAVYYCAAVSRSRREKKFDYWGQGTQVTVSS”: the “polyreactivity (PSR sort gate)” value is “low polyreactivity”.
“QVQLVESGGGLVQAGGSLRLSCAASGSIFRKNVMGWSRPAPGKERELVAAITASGGRTYYADSVKGRFTISRDNAKNTVYLQMNSLKPEDTAVYYCAARRYYPYISSGPYYYWGQGTQVTVSS”: the “polyreactivity (PSR sort gate)” value was “high polyreactivity”.
In the case of “QVQLVESGGGLVQAGGSLRLSCAASGNIFSRNAMGWYRQAPGKERELVASIRWSGGSTYADSVKGRFTISRDNAKNTVYLQMNSLKPEDTAVYYCAADSLHGRKFRGVDYWGQGTEVTVSS”, the “polyreactivity (PSR sort gate)” value is on record as “low polyreactivity”.
“QVQLVESGGGLVQAGGSLRLSCAASGITFKYYAMGWYRQAPGKERELVADISWGGGSTYYADSVKGRFTISRDNAKNTVYLQMNSLKPEDTAVYYCAAEYSGSYYSFWMVYWGLGTQVTVSS”: the “polyreactivity (PSR sort gate)” value is recorded as “low polyreactivity”.
With “QVQLVESGGGLVQAGGRLRLTCAASGLTFERHAMGWYSQARGKERDVVAAWSGGGTYYADSVKGRFTISRDNAKNTVYLHLNSLKPQDTAVYYCAADYRYYLSIGVNSWGQGTQVTVSS” the entry was “low polyreactivity”.
With “QVQLVESGGGLVQAGGSLRLSCAASGFTFEYYAMGWFRQAPGKERELVATITSGGSTYYADSVKGRFTISRDNAKNTVYLQMNSLKPEDTAVYDCNTSSPWIEDYWGQGTQVTVSS”, the “polyreactivity (PSR sort gate)” value is listed as “low polyreactivity”.
On to “PVQLVESGGGLVQAGGSLRLSCAASGRTVGYAMGWYRQSPWKERELVARINRTTGSTYYADSVKGRFTISRDNAKNTVYLQMKRLKPEDTAVYYCNAKSYYYSRWSRYYCTGYYYWGQGTQVTVSS”, for which the “polyreactivity (PSR sort gate)” value is listed as “high polyreactivity”.
Next, “QVQHVESGGGLVQAGGSLRLSCAASGSIFGANAMGWYRQAPGNERQLVAAITSGGSTTYADSVKGRFTISRDNAKNTVYLQMNSLKPDDTAVYYCAADESTPYWPVDNFDYWGQGTQVTVSS”: “low polyreactivity”.
